Experimental data: patent US20060019338A1

Key:
[1] = target: squirrel monkey prokineticin receptor 2 (PKR2) (squirrel monkey); experiment: cell-based or functional assay
[2] = target: rhesus monkey prokineticin receptor 1 (PKR1) (rhesus monkey); experiment: cell-based or functional assay

calcium mobilization (aequorin luminescence) EC50 [1]	calcium mobilization (aequorin luminescence) EC50 [2]	Substance
10 nM	–	recombinant human PK1 (from UniProt P58294 20-105) (ligand)
–	10 nM	recombinant human PK2 (from UniProt Q9HC23 28-129) (ligand)
